Reference: paper doi:10.1101/2024.11.08.622755

Tests used:
[1] = molecular target: Nonlabens marinus rhodopsin 1 (NM-R1), proteorhodopsin clade (Nonlabens marinus S1-08T); assay: cryo-EM structure
[2] = molecular target: Nonlabens marinus rhodopsin 3 (NM-R3), chloride ion-pumping rhodopsin clade (Nonlabens marinus S1-08T); assay: cryo-EM structure

| stoichiometry N [1] | stoichiometry N [2] | Substance |
| --- | --- | --- |
| 5 |  | Nonlabens marinus rhodopsin 1 (NM-R1), proteorhodopsin clade (natural protein) |
|  | 5 | Nonlabens marinus rhodopsin 3 (NM-R3), chloride ion-pumping rhodopsin clade (natural protein) |
